# Measurements as given in paper PMC7150778 (2020).
# Like-named read-outs stand apart in the source and are kept apart here.
# B1: 1918 NS1 ED-ΔCTT (protein)
# chain: TMASVPASRYLTDMTLEELSRDWSMLIPKQKVAGPLCIRMDQAIMDKNIILKANFSVIFDRLETLILLRAFTEEGAIVGEISPLPSLPGHTAEDVKNAVGVLIGGLEWNDNTVRVSETLQRFAWRSSNENGRPPLTPKQKREMAGTIRSEV
# B2: 1918 NS1 ED-CTT (protein)
# chain: TMASVPASRYLTDMTLEELSRDWSMLIPKQKVAGPLCIRMDQAIMDKNIILKANFSVIFDRLETLILLRAFTEEGAIVGEISPLPSLPGHTAEDVKNAVGVLIGGLEWNDNTVRVSETLQRFAWRSSNENGRPPLTPKQKREMAGTIRSEV
# Tests used:
# [1] = target: NS1 ED (Influenza A virus) (UniProt P69278); details: cited from earlier work
# p85β iSH2 [2] = target: p85β iSH2 (UniProt O00459); details: cited from earlier work
# p85β iSH2 [3] = target: T1, p85β iSH2 (UniProt O00459)
# T1 chain: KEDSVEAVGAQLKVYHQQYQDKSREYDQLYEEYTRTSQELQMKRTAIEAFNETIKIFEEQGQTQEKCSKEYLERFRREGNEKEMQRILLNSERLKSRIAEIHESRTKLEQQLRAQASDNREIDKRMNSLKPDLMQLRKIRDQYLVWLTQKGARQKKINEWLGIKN
Molecule,Kd (p85β iSH2 [3]) [nM],also measured
NS1 ED (from UniProt P69278),,Kd [1]: 89000 nM
1918 NS1 ED-CTT (from UniProt Q0PDM0),,Kd (p85β iSH2 [2]): 300 nM
B1,370,
B2,700,
